Target: Human pyruvate kinase isoform M2 (PKM2), wild type (human) (UniProt P14618)
Experiment: SEC

Human pyruvate kinase isoform M2 (PKM2), wild type, P14618 1-531 (enzyme; other documents disagree on this pair), sequence (P14618 whole entry, canonical isoform): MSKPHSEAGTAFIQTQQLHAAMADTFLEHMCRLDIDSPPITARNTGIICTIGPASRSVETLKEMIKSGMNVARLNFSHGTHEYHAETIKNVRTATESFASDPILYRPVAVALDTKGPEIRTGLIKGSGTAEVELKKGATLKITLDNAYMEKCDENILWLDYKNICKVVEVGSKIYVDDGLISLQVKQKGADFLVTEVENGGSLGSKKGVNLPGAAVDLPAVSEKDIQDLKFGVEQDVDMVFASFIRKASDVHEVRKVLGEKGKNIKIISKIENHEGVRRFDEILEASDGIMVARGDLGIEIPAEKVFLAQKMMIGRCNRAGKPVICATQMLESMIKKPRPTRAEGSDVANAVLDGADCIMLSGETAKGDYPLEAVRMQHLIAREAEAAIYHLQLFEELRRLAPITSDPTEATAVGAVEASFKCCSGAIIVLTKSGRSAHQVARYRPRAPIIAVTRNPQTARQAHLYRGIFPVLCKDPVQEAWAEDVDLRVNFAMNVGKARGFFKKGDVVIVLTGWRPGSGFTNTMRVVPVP

## Human pyruvate kinase isoform M2 (PKM2), wild type, P14618 1-531 (enzyme; other documents disagree on this pair)
  stoichiometry N: 2

Reference: article PMC4995138
